Test results: PMC2528289

Target: T1, FliI, flagellar ATPase, full-length protein released from GST-FliI by thrombin (S. typhimurium SJW1103), P26465
T1 chain: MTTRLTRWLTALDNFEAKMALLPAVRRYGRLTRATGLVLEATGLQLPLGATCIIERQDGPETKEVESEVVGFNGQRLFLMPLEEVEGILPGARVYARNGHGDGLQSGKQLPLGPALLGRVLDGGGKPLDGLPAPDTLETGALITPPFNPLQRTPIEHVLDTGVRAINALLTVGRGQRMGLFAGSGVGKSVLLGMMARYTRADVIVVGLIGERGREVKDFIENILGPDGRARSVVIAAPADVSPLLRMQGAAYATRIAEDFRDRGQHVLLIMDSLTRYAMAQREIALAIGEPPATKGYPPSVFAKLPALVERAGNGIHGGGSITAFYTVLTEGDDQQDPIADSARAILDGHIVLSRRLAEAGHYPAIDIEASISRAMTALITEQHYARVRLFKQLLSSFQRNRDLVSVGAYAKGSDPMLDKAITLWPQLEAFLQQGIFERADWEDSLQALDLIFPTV
Test: negative-stain electron microscopy with single particle analysis
Settings: remark: other sources report otherwise

B1: FliI, flagellar ATPase, full-length protein released from GST-FliI by thrombin, P26465 1-456 (enzyme)
chain: T1 chain
stoichiometry N: 6
